In US20260103522A1 (published 2026):
Numbering of substitutions follows the chain as printed.

T1: recombinant human FcεRIa extracellular region-mouse IgG2a Fc-6×His fusion protein (human, UniProt P12319 26-205)
T1 chain (part 1 of 2): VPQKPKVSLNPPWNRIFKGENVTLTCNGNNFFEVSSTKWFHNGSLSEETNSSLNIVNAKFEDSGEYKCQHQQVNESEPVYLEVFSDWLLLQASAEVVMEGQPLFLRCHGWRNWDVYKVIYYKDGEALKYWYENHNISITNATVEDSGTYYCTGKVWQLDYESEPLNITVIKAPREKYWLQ
T1 chain (part 2 of 2): HHHHHH

T2: recombinantly expressed human FcεRIa-Fc protein (human, UniProt P12319 26-205)
T2 chain: T1 chain (part 1 of 2)

B1: binding protein DB-B64 (designed binder)
chain: CPAPELLGGPSVFLFPPKPKDTLMISRTPEVTCVVVDLAPSKGTVKFNWYVDGVEVHNAKTKPREKQRNGTLTVVSVLTVLHQDWLNGKEYKCKVTHPHLPRALEKTISKAKGQPREPQVYTLPPSREEMTKNQVSLTCLVKGFYPSDIAVEWESNGQPENNYKTTPPVLDSDGSFFLYSKLTVDKSRWQQGNVFSCSVMHEALHNHYTQKSLSLSPGK
B2: Her2-specific binding protein DB872 (antibody)
heavy: EVQLVESGGGLVQPGGSLRLSCAASGFTFTDYTMDWVRQAPGKGLEWVADVNPNSGGSIYNQRFKGRFTLSVDRSKNTLYLQMNSLRAEDTAVYYCARNLGPSFYFDYWGQGTLVTVSSASTKGPSVFPLAPSSKSTSGGTAALGCLVKDYFPEPVTVSWNSGALTSGVHTFPAVLQSSGLYSLSSVVTVPSSSLGTQTYICNVNHKPSNTKVDKKVEPKSCDKTHTCPPCPADSNPRGVSVFLFPPKPKDTLMISRTPEVTCVVVDLAPSKGTVKFNWYVDGVEVHNAKTKPREKQRNGTLTVVSVLTVLHQDWLNGKEYKCKVTHPHLPRALEKTISKAKGQPREPQVYTLPPSREEMTKNQVSLTCLVKGFYPSDIAVEWESNGQPENNYKTTPPVLDSDGSFFLYSKLTVDKSRWQQGNVFSCSVMHEALHNHYTQKSLSLSPGK
light: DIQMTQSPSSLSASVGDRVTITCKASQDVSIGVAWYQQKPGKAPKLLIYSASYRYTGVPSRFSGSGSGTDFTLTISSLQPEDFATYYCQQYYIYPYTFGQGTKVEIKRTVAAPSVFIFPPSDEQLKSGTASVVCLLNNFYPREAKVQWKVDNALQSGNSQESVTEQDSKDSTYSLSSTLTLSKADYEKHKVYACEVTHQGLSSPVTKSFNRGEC
B3: Her2-specific binding protein DB871 (antibody)
heavy: EVQLVESGGGLVQPGGSLRLSCAASGFTFTDYTMDWVRQAPGKGLEWVADVNPNSGGSIYNQRFKGRFTLSVDRSKNTLYLQMNSLRAEDTAVYYCARNLGPSFYFDYWGQGTLVTVSSASTKGPSVFPLAPSSKSTSGGTAALGCLVKDYFPEPVTVSWNSGALTSGVHTFPAVLQSSGLYSLSSVVTVPSSSLGTQTYICNVNHKPSNTKVDKKVEPKSCSRDFTPPTVKILQSSCDGGGHFPPTIQLLCLVSGYTPGTINITWLEDGQVMDVDLSTASTTQEGELASTQSELTLSQKHWLSDRTYTCQVTYQGHTFEDSTKKCADSNPRGVSVFLFPPKPKDTLMISRTPEVTCVVVDLAPSKGTVKFNWYVDGVEVHNAKTKPREKQRNGTLTVVSVLTVLHQDWLNGKEYKCKVTHPHLPRALEKTISKAKGQPREPQVYTLPPSREEMTKNQVSLTCLVKGFYPSDIAVEWESNGQPENNYKTTPPVLDSDGSFFLYSKLTVDKSRWQQGNVFSCSVMHEALHNHYTQKSLSLSPGK
light: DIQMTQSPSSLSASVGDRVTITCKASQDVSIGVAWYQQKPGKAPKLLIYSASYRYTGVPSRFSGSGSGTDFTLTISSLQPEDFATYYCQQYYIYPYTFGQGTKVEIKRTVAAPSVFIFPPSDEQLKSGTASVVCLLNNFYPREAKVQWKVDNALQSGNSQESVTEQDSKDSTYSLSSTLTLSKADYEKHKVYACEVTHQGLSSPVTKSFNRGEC
B4: binding protein DB364 (designed binder)
chain: DFTPPTVKILQSSCDGGGHFPPTIQLLCLVSGYTPGTINITWLEDGQVMDVDLSTASTTQEGELASTQSELTLSQKHWLSDRTYTCQVTYQGHTFEDSTKKCADSNPRGVSVFLFPPKPKDTLMISRTPEVTCVVVDLAPSKGTVKFNWYVDGVEVHNAKTKPREKQRNGTLTVVSVLTVLHQDWLNGKEYKCKVTHPHLPRALEKTISKAKGQPREPQVYTLPPSREEMTKNQVSLTCLVKGFYPSDIAVEWESNGQPENNYKTTPPVLDSDGSFFLYSKLTVDKSRWQQGNVFSCSVMHEALHNHYTQKSLSLSPGK
B5: binding protein DB366 (designed binder)
chain: CADSNPRGVSVFLFPPKPKDTLMISRTPEVTCVVVDLAPSKGTVKFNWYVDGVEVHNAKTKPREKQRNGTLTVVSVLTVLHQDWLNGKEYKCKVTHPHLPRALEKTISKAKGQPREPQVYTLPPSREEMTKNQVSLTCLVKGFYPSDIAVEWESNGQPENNYKTTPPVLDSDGSFFLYSKLTVDKSRWQQGNVFSCSVMHEALHNHYTQKSLSLSPGK
B6: binding protein DB365 (designed binder)
chain: TKKCADSNPRGVSVFLFPPKPKDTLMISRTPEVTCVVVDLAPSKGTVKFNWYVDGVEVHNAKTKPREKQRNGTLTVVSVLTVLHQDWLNGKEYKCKVTHPHLPRALEKTISKAKGQPREPQVYTLPPSREEMTKNQVSLTCLVKGFYPSDIAVEWESNGQPENNYKTTPPVLDSDGSFFLYSKLTVDKSRWQQGNVFSCSVMHEALHNHYTQKSLSLSPGK
B7: binding protein DB-B63 (designed binder)
chain: B5 chain with K45N, K93R
B8: binding protein DB177 (designed binder)
chain: CSRDFTPPTVKILQSSCDGGGHFPPTIQLLCLVSGYTPGTINITWLEDGQVMDVDLSTASTTQEGELASTQSELTLSQKHWLSDRTYTCQVTYQGHTFEDSTKKCADSNPRGVSVFLFPPKPKDTLMISRTPEVTCVVVDLAPSKGTVKFNWYVDGVEVHNAKTKPREKQRNGTLTVVSVLTVLHQDWLNGKEYKCKVTHPHLPRALEKTISKAKGQPREPQVYTLPPSREEMTKNQVSLTCLVKGFYPSDIAVEWESNGQPENNYKTTPPVLDSDGSFFLYSKLTVDKSRWQQGNVFSCSVMHEALHNHYTQKSLSLSPGK

Biological target: T1, recombinant human FcεRIa extracellular …
Test: BLI

**Q.** Which Kd does the source give for B1 here?
**A.** 4.68 nM

**Q.** How did the Kd turn out when B2 was run?
**A.** 1.81 nM

**Q.** With B3 as the binder, how does the Kd read?
**A.** 1.91 nM

**Q.** B4 was tested. Which Kd did it give?
**A.** 1.78 nM

**Q.** B5 was tested. Which Kd did it give?
**A.** 1.68 nM

**Q.** With B6 as the binder, how does the Kd read?
**A.** 0.719 nM

Biological target: T2, recombinantly expressed human FcεRIa-Fc …
Test: blocking ELISA; blocking human IgE binding

**Q.** Which EC50 does the source give for B1 here?
**A.** 24.5 nM

**Q.** With B5 as the binder, how does the EC50 read?
**A.** 8.94 nM

**Q.** For B7, which EC50 is on record?
**A.** 6.52 nM

Biological target: T2, recombinantly expressed human FcεRIa-Fc …
Test: blocking ELISA; blocking human IgE binding
Remark: another data set of the same source

**Q.** With B8 as the binder, how does the IC50 read?
**A.** 18.4 nM

**Q.** For B4, which IC50 is on record?
**A.** 15.7 nM

**Q.** How did the IC50 turn out when B5 was run?
**A.** 16.2 nM

**Q.** With B6 as the binder, how does the IC50 read?
**A.** 12.8 nM

Biological target: T2, recombinantly expressed human FcεRIa-Fc …
Test: blocking ELISA; blocking human IgE binding
Remark: another data set of the same source

**Q.** B2 was tested. Which IC50 did it give?
**A.** 77.4 nM

**Q.** B3 was tested. Which IC50 did it give?
**A.** 61.2 nM

**Q.** For B5, which IC50 is on record?
**A.** 59.7 nM
